# Test results: article PMC4778132, “CC chemokine receptor 10 cell surface presentation in melanocytes is regulated by the novel interaction partner S100A10” (Scientific Reports, 2016)
# Legend:
# [1] = molecular target: T1, recombinant HIS-tagged human S100A10 (wild type) (human, UniProt P60903 1-97); assay: SPR; Biacore 3000; GST-CCR10 CT amine-coupled on a CM5 chip; six concentrations of HIS-tagged S100A10 derivative injected; HBS-P buffer (10 mM Hepes pH 7.4, 150 mM NaCl, 0.005% Tween-20), 25 °C; binding to GST alone subtracted; single binding site model, KD by the Scatchard equation; conditions: both partners purified
# T1 construct: human S100A10, cDNA in pET28a(+); also called HIS-S100A10; S100A10 wt; source: E. coli BL21(DE3)pLysS, purified (Ni-NTA); not shown: poly-histidine (HIS), N-terminal, kept
# T1 sequence (P60903 whole entry): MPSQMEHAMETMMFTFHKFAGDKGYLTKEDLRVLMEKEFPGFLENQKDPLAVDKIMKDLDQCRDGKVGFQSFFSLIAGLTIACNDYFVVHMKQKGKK
# [2] = molecular target: T1, recombinant HIS-tagged human S100A10 …; assay: pull-down; GST fusion proteins (50 μg) on glutathione sepharose beads incubated with purified protein (10 μg), 2 hours at 4 °C, IP buffer (20 mM Tris-HCl pH 7.5, 25 mM NaCl, 10 mM NaF, 1 mM EDTA, 0.1% Triton-X 100); immunoblot; conditions: both partners purified
Binder,Kd [1] [nM],binding result [2]
"GLRFRQDLRRLLRGGSCPSGPQPRRGCPRRPRLSSCSAPTETHSLSWDN (domain or fragment, UniProt P46092 314-362, looked up, C-terminal cytosolic tail of human CCR10, amino acid residues 314-362 (methods); the results print 314-369; Cloned in pGex-4T-1; Results print 314-369, methods 314-362; also called CCR10 CT_(314–369); pGex-CCR10CT_(314–362)) [GST-CCR10 CT (C-terminal cytoplasmic tail of human CCR10 fused to GST)]",~1000,–
"GLRFRQDLRRLLRGGSCPSGPQPRRG (domain or fragment, human, UniProt P46092 314-339, looked up, C-terminal tail of human CCR10, amino acid residues 314-339 (stop codon inserted into pGex-CCR10CT); also called T1 mutant) [GST-CCR10 CT truncation mutant T1]",–,binds
